Legend:
Human tau = Human tau (human, UniProt P10636 1-441); test: direct binding ELISA
Human alpha-synuclein = Human alpha-synuclein (human, UniProt P37840 1-140); test: direct binding ELISA

Chain of Human tau (P10636 other isoform, or with tags, fused parts or gaps): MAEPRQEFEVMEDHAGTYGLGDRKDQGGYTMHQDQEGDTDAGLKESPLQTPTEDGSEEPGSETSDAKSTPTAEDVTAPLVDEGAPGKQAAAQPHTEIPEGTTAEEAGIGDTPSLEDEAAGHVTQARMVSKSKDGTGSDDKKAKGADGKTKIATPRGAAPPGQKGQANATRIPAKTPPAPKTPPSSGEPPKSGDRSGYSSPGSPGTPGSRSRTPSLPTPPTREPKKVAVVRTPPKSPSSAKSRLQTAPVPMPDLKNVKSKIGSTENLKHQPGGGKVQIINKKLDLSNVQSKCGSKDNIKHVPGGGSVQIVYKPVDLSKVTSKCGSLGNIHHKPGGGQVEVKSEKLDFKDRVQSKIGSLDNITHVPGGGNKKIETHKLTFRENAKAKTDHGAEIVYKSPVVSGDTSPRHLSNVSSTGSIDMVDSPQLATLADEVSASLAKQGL

| Binder | EC50 (Human tau) | EC50 (Human alpha-synuclein) |
| --- | --- | --- |
| FC5-H62(T33C/A104C)-G4S-6C5 (LC) (bispecific antibody) heavy: not shown light: DVQLVESGGGLVQPGGSLRLSCAASGFKITHYCTGWFRQAPGKEREFVSRITWGGDNTFYSNSVKGRFTISRDNSKNTVYLQMNSLRAEDTAVYYCAAGSTSTCTPLRVDYWGQGTLVTVSSGGGGSSYELTQPPSVSVSPGQTARITCSGDALPKRYVYWYQQKSGQAPVLVIYEDSKRPSGIPETFSGSSSGTMATLTISGAQVEDEADYYCYSTDSNGHHWVFGGGTKLTVLGQPKAAPSVTLFPPSSEELQANKATLVCLISDFYPGAVTVAWKADSSPVKAGVETTTPSKQSNNKYAASSYLSLTPEQWKSHRSYSCQVTHEGSTVEKTVAPTECS | 0.98 nM |  |
| 12F4 hIgG1 (antibody, V domains shown) VH: EVQLVESGGGLVEPGGSLRLSCAVSGFDFEKAWMSWVRQAPGQGLQWVARIKSTADGGTTSYAAPVEGRFIISRDDSRNMLYLQMNSLKTEDTAVYYCTSAHWGQGTLVTVSS VL: SYELTQPPSVSVSPGQTARITCSGEALPMQFAHWYQQRPGKAPVIVVYKDSERPSGVPERFSGSSSGTTATLTITGVQAEDEADYYCQSPDSTNTYEVFGGGTKLTVLS |  | 2.7 nM |
| 6C5 hIgG1 (antibody, V domains shown) VH: QVQLVESGGGVVQPGRSLRVSCAASGFTFSSYDMHWVRQAPGKGLEWVAVIWFDGSNEFYADSVKGRFTISRDNSKNTLFLQMNSLRAEDTAVYYCARDLGASVTTSNAENFHHWGQGTLVTVSS VL: SYELTQPPSVSVSPGQTARITCSGDALPKRYVYWYQQKSGQAPVLVIYEDSKRPSGIPETFSGSSSGTMATLTISGAQVEDEADYYCYSTDSNGHHWVFGGGTKLTVLG | 0.52 nM |  |
| FC5-H62(T33C/A104C)-G4S-6C5 hIgG1 (HC) (bispecific antibody) heavy: not shown light: SYELTQPPSVSVSPGQTARITCSGDALPKRYVYWYQQKSGQAPVLVIYEDSKRPSGIPETFSGSSSGTMATLTISGAQVEDEADYYCYSTDSNGHHWVFGGGTKLTVLGQPKAAPSVTLFPPSSEELQANKATLVCLISDFYPGAVTVAWKADSSPVKAGVETTTPSKQSNNKYAASSYLSLTPEQWKSHRSYSCQVTHEGSTVEKTVAPTECS | 0.74 nM |  |
